According to IntAct's records for PubMed 20173330:

These substances were tested against jip4_mouse Spag9 (UniProt Q58A65).
Sequence of UniProt Q58A65 (Q58A65 whole entry): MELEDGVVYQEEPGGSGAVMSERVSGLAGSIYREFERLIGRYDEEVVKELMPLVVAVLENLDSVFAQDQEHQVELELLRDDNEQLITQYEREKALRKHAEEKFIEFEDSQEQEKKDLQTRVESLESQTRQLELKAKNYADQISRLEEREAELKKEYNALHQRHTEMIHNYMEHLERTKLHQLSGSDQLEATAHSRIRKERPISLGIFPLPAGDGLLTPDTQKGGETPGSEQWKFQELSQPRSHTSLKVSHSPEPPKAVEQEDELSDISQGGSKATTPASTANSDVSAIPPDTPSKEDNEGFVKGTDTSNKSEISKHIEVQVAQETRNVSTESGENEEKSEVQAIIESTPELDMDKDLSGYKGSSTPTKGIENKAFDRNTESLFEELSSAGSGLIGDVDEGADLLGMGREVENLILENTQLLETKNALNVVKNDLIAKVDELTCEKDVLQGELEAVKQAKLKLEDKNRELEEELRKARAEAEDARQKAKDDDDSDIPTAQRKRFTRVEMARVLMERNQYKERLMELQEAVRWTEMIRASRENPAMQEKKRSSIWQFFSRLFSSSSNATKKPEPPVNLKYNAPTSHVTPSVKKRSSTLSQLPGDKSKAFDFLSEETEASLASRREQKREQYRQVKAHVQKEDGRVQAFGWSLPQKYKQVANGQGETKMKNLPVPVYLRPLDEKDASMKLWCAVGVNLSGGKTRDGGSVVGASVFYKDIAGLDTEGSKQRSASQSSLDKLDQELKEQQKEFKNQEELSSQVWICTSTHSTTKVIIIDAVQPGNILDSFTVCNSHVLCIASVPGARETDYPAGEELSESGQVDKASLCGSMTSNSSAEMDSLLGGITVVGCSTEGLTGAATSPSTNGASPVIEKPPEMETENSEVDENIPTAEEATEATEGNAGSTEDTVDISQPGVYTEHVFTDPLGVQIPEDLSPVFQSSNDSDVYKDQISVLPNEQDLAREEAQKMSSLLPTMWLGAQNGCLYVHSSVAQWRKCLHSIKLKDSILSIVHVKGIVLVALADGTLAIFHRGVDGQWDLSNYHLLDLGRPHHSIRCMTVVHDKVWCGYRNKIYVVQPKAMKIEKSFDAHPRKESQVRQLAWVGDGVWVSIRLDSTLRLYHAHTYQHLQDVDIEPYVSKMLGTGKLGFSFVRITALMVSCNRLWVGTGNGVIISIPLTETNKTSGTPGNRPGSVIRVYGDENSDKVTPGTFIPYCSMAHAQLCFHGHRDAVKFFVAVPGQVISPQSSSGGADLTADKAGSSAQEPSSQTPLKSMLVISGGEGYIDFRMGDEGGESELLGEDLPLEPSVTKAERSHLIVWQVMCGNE

Substance | effect of a mutation on the interaction
Leucine-rich repeat serine/threonine-protein kinase 2 (Homo sapiens), Q5S007 G2019S | increasing interaction
Leucine-rich repeat serine/threonine-protein kinase 2 (Homo sapiens), Q5S007 I2020T | increasing interaction
Leucine-rich repeat serine/threonine-protein kinase 2 (Homo sapiens), Q5S007 R1441C | increasing interaction
Leucine-rich repeat serine/threonine-protein kinase 2 (Homo sapiens), Q5S007 Y1699C | decreasing interaction
